Consider 1 molecule from patent KR20230022334A (dated 2023).

Test [1] has as its target T1, API5(Apoptosis inhibitor protein 5) 단백질, Expi293 세포에서 일시발현 후 정제 (human, UniProt Q9BZZ5-2 1-504).
T1 construct: also called rhAPI5; AAC-11
T1 sequence: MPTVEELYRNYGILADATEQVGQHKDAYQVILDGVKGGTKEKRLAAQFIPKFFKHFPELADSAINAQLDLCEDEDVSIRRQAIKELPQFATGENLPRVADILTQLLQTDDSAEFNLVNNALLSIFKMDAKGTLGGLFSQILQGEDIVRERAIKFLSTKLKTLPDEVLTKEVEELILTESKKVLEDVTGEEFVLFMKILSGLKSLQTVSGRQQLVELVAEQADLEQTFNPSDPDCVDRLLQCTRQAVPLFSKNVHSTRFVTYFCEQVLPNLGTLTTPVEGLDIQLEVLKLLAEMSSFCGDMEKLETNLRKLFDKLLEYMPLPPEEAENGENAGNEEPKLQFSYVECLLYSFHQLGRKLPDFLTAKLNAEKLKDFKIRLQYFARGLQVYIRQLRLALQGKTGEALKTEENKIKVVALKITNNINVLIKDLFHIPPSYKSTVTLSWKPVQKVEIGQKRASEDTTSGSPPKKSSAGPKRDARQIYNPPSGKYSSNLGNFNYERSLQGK
The test can be described thus: ELISA, 3F2 serially diluted 3.125-200 nM (8 points including 0 nM).

Test [2] deals with T1, API5(Apoptosis inhibitor protein 5) …. The test can be described thus: SPR, Biacore T200, 3F2 serially diluted 3.125-100 nM (7 points including 0 nM).

B1: 3F2 항체 (API5 표적 인간 항체 3F2) (antibody, V domains shown)
VH: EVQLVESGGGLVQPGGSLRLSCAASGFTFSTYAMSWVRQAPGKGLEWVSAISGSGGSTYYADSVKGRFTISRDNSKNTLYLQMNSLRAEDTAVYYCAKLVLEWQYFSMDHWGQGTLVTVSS
VL: DIQMTQSPSSLSASVGDRVTITCRASQSISRYLNWYQQKPGKAPKLLIYAASTLQSGVPSRFSGSGSGTDFTLTISSLQPEDFATYYCQQSYSFPWTFGQGTKVEIK
notes: Purified 3F2 antibody as used in the ELISA and SPR; IgG is used as the control in later experiments; also called API5 항체 3F2; 3F2 antibody
For B1, the Kd in test [1] is 1.2 nM; in test [2], 4.62 nM.
